Test results published in WO2011147762A2.

What was measured:
[1] = target: ED-B fibronectin antigen protein (recombinant), bound to CNBr activated sepharose 4B (UniProt P02751); experiment: ED-B sepharose column, % of total radioactivity bound; Study A; trolox 5 mg/mL; day 5
[2] = target: ED-B fibronectin antigen protein (recombinant), bound to CNBr activated sepharose 4B (UniProt P02751); experiment: ED-B sepharose column, % of total radioactivity bound; Study B3; inositol 10 mg/mL; day 2
[3] = target: ED-B fibronectin antigen protein (recombinant), bound to CNBr activated sepharose 4B (UniProt P02751); experiment: ED-B sepharose column, % of total radioactivity bound; Study B3; no-excipient control (PBS); day 0
[4] = target: ED-B fibronectin antigen protein (recombinant), bound to CNBr activated sepharose 4B (UniProt P02751); experiment: ED-B sepharose column, % of total radioactivity bound; Study A; inositol 5 mg/mL; day 3
[5] = target: ED-B fibronectin antigen protein (recombinant), bound to CNBr activated sepharose 4B (UniProt P02751); experiment: ED-B sepharose column, % of total radioactivity bound; Study A; maltose 10 mg/mL; day 1
[6] = target: ED-B fibronectin antigen protein (recombinant), bound to CNBr activated sepharose 4B (UniProt P02751); experiment: ED-B sepharose column, % of total radioactivity bound; Study A; no-excipient control (saline); day 0
[7] = target: ED-B fibronectin antigen protein (recombinant), bound to CNBr activated sepharose 4B (UniProt P02751); experiment: ED-B sepharose column, % of total radioactivity bound; Study A; methionine 5 mg/mL; day 3
[8] = target: ED-B fibronectin antigen protein (recombinant), bound to CNBr activated sepharose 4B (UniProt P02751); experiment: ED-B sepharose column, % of total radioactivity bound; Study B3; ascorbic acid 25 mg/mL; day 1
[9] = target: ED-B fibronectin antigen protein (recombinant), bound to CNBr activated sepharose 4B (UniProt P02751); experiment: ED-B sepharose column, % of total radioactivity bound; Study A; maltose 25 mg/mL; day 5
[10] = target: ED-B fibronectin antigen protein (recombinant), bound to CNBr activated sepharose 4B (UniProt P02751); experiment: ED-B sepharose column, % of total radioactivity bound; Study A; no-excipient control (saline); day 3
[11] = target: ED-B fibronectin antigen protein (recombinant), bound to CNBr activated sepharose 4B (UniProt P02751); experiment: ED-B sepharose column, % of total radioactivity bound; Study A; maltose 25 mg/mL; day 7
[12] = target: ED-B fibronectin antigen protein (recombinant), bound to CNBr activated sepharose 4B (UniProt P02751); experiment: ED-B sepharose column, % of total radioactivity bound; Study A; sodium thiosulfate 10 mg/mL; day 1
[13] = target: ED-B fibronectin antigen protein (recombinant), bound to CNBr activated sepharose 4B (UniProt P02751); experiment: ED-B sepharose column, % of total radioactivity bound; Study B3; no-excipient control (PBS); day 3
[14] = target: ED-B fibronectin antigen protein (recombinant), bound to CNBr activated sepharose 4B (UniProt P02751); experiment: ED-B sepharose column, % of total radioactivity bound; Study A; inositol 10 mg/mL; day 1
[15] = target: ED-B fibronectin antigen protein (recombinant), bound to CNBr activated sepharose 4B (UniProt P02751); experiment: ED-B sepharose column, % of total radioactivity bound; Study A; trolox 5 mg/mL; day 3
[16] = target: ED-B fibronectin antigen protein (recombinant), bound to CNBr activated sepharose 4B (UniProt P02751); experiment: ED-B sepharose column, % of total radioactivity bound; Study A; maltose 50 mg/mL; day 3
[17] = target: ED-B fibronectin antigen protein (recombinant), bound to CNBr activated sepharose 4B (UniProt P02751); experiment: ED-B sepharose column, % of total radioactivity bound; Study A; methionine 10 mg/mL; day 1
[18] = target: ED-B fibronectin antigen protein (recombinant), bound to CNBr activated sepharose 4B (UniProt P02751); experiment: ED-B sepharose column, % of total radioactivity bound; Study A; maltose 25 mg/mL; day 0
[19] = target: ED-B fibronectin antigen protein (recombinant), bound to CNBr activated sepharose 4B (UniProt P02751); experiment: ED-B sepharose column, % of total radioactivity bound; Study B3; ascorbic acid 25 mg/mL; day 3
[20] = target: ED-B fibronectin antigen protein (recombinant), bound to CNBr activated sepharose 4B (UniProt P02751); experiment: ED-B sepharose column, % of total radioactivity bound; Study A; methionine 25 mg/mL; day 1
[21] = target: ED-B fibronectin antigen protein (recombinant), bound to CNBr activated sepharose 4B (UniProt P02751); experiment: ED-B sepharose column, % of total radioactivity bound; Study B3; no-excipient control (PBS); day 1
[22] = target: ED-B fibronectin antigen protein (recombinant), bound to CNBr activated sepharose 4B (UniProt P02751); experiment: ED-B sepharose column, % of total radioactivity bound; Study B3; human serum albumin 10 mg/mL; day 0
[23] = target: ED-B fibronectin antigen protein (recombinant), bound to CNBr activated sepharose 4B (UniProt P02751); experiment: ED-B sepharose column, % of total radioactivity bound; Study A; maltose 10 mg/mL; day 7
[24] = target: ED-B fibronectin antigen protein (recombinant), bound to CNBr activated sepharose 4B (UniProt P02751); experiment: ED-B sepharose column, % of total radioactivity bound; Study B3; human serum albumin 10 mg/mL; day 3
[25] = target: ED-B fibronectin antigen protein (recombinant), bound to CNBr activated sepharose 4B (UniProt P02751); experiment: ED-B sepharose column, % of total radioactivity bound; Study B3; human serum albumin 10 mg/mL; day 1
[26] = target: ED-B fibronectin antigen protein (recombinant), bound to CNBr activated sepharose 4B (UniProt P02751); experiment: ED-B sepharose column, % of total radioactivity bound; Study A; methionine 5 mg/mL; day 0
[27] = target: ED-B fibronectin antigen protein (recombinant), bound to CNBr activated sepharose 4B (UniProt P02751); experiment: ED-B sepharose column, % of total radioactivity bound; Study A; methionine 25 mg/mL; day 7
[28] = target: ED-B fibronectin antigen protein (recombinant), bound to CNBr activated sepharose 4B (UniProt P02751); experiment: ED-B sepharose column, % of total radioactivity bound; Study B3; ascorbic acid 25 mg/mL; day 2

Chain of 131I L19-SIP (radioiodinated L19 SIP homodimer) (chain): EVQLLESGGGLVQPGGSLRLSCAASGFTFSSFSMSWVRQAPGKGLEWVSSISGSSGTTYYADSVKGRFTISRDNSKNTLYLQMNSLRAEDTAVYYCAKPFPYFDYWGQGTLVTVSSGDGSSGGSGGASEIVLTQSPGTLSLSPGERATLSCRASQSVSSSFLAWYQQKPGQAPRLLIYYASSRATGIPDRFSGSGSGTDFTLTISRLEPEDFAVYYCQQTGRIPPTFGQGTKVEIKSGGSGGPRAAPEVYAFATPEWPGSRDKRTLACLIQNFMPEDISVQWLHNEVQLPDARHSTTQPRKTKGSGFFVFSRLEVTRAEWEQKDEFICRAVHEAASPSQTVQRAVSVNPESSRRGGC
Chain of 131I L19-SIP (radioiodinated L19 SIP homodimer) (chain): as above
Chain of UniProt P02751 (P02751 1266-1356 limits assumed): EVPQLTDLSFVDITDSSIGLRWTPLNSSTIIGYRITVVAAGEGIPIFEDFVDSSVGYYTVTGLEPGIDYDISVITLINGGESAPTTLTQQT

Substance “131I L19-SIP (radioiodinated L19 SIP homodimer)” has an Immunoreactivity (%) [1] of 65.8%, an Immunoreactivity (IR) (%) [2] of 68.8% and an Immunoreactivity (IR) (%) [3] of 74.6%. It also gave an Immunoreactivity (%) [4] of 64.6%, an Immunoreactivity (%) [5] of 85.4% and an Immunoreactivity (%) [6] of 94.3%. The Immunoreactivity (%) [7] was 72.9%, the Immunoreactivity (IR) (%) [8] was 78% and the Immunoreactivity (%) [9] was 57.7%. The Immunoreactivity (%) [10] was 59.8%, the Immunoreactivity (%) [11] was 53.6% and the Immunoreactivity (%) [12] was 94.7%. It also gave an Immunoreactivity (IR) (%) [13] of 68.3%, an Immunoreactivity (%) [14] of 89.5% and an Immunoreactivity (%) [15] of 77.6%. The Immunoreactivity (%) [16] was 66.2%, the Immunoreactivity (%) [17] was 88.1% and the Immunoreactivity (%) [18] was 93.6%. It also gave an Immunoreactivity (IR) (%) [19] of 78.7%, an Immunoreactivity (%) [20] of 89.6% and an Immunoreactivity (IR) (%) [21] of 73.2%. For the same substance, the Immunoreactivity (IR) (%) [22] was 76.3%, the Immunoreactivity (%) [23] was 53.7% and the Immunoreactivity (IR) (%) [24] was 60.6%. The Immunoreactivity (IR) (%) [25] was 78%, the Immunoreactivity (%) [26] was 96.7% and the Immunoreactivity (%) [27] was 58.9%. It also gave an Immunoreactivity (IR) (%) [28] of 75%.
